Measured values reported in a protein production outcome set (Wang et al. 2014).

Test: label from the status in PepcDB records

MKKIHLNKWKHKTSLYLMLFCLSLPLALTPLSVSATEKETESEQTAPTSQKDASETTSETQTVESSTNDQNQNNSTISLPESSSTTSLAPSESLTSDSKKLAQKEEVVASTTVAEPKAAASSTISVPDPNLKQTILSTLGLATTAELTQTDMDKLTNLTLNSVDIYSLVGLEHATNLSSIYINVNNKITDFTPLESLTKLTFVTLQTSSLTSDNFPNLTASQGLTNLSIGGTSVDNSVLAKIVNLKALVRLYMDSNMNITNIEPLKVLPNLKSLSVQFCGITDFTVIKDFPIMSDLAAFGQNTGRNDPPTTVTRSSLKYNEDEQSVYIPFSMMPNRMTNFDGYIPPFSTSNSASNTYFDFNGTQLPASRLQIDDNGITINSVSPEEYQGIKSFEYNARLNNPAGTYAVPDGYTFYAISSGTYLHQFDVVDDGAPVTVKYQDENGQELAPSELLNGYVGATYNSKELSFQGYSLIKVDGDATGKFTDSPQTVTYIYQKNAKLLGQVTVKYIDTDGKALFGDVIQTGNIGETYHTEKKELTGYTFKNIIGNASGQYTNSPQTVTYVYEKNANPNKPEEVIPDSSDKNNVNPDSRENETTKGSKTVKDKESVVTSKEKNLPETGDKEQGMKKITLFGSFLLILGSLVLFIRFRKVD
protein production: failed

MTRVDVVTRTLPPNEVSEANPWDTDRFWTVPNVLSVIRLIGVPIFLWLALGPRADGWAVAVLAVAGLTDWLDGRIARRWHQVSRIGQMLDPVADRLYIFATVIALTLRDVIPLWLVIVLIARDVCMACLMPALRTRGFTSLPVHFVGKAATFCLLYSFPLVLLGRFGTGGWTACRVLGWAFAVWGTGLYWWAFFLYLVQTIRIVRTLPRISSRGEYS
protein production: failed

MLNNKRLFTSESVTEGHPDKIADQVSDAILDAILKDDPNARVACETTVTTGMALIAGEISTTTYVDIPKVVRETIKEIGYTRAKYGYDYETMAILTAIDEQSPDIAQGVDKALEYRDKDSEEEIEATGAGDQGLMFGYATNETETYMPLAIYLSHQLAKRLSDVRKDGTLNYLRPDGKVQVTVEYDENDNPVRIDTIVVSTQHAEDVTLEQIQEDIKAHVIYPTVPENLINEQTKFYINPTGRFVIGGPQGDAGLTGRKIIVDTYGGYARHGGGCFSGKDPTKVDRSAAYAARYVAKNIVAAGLADQCEVQLAYAIGVAEPVSIAIDTFGTGKVSEGQLVEAVRKHFDLRPAGIIKMLDLKQPIYKQTAAYGHFGRTDVLFPWEKLDKVEELKDAVK
protein production: failed

LSIPEDYQARLQPNRVEGSYPLVRMEFTGATVDAPLMSQISRKYNIDVSILSSDLDYAGGVKFGMMVAELFGNEQDDSAAIEYLREHNVKVEVLGYVL
protein production: not failed

MTTVSPDDSSPSTLTSLTFDDLTPGQSASLSRTLTQADLDLFATVSGNIDPSHFADPPAGTTLFPKAIGHGMWSASLISGVLGTRLPGPGTVYLAQDLRFRAPVTLGDTITASVTVREKRTERKTVVFECLCTNQNGVTVVSGTAEVIAPATHASVAAQALPGLQMIRHDRQAALLARCAGLPALPTAVIHPCDGPALQGAVEAAQRGLIEPILVGPSLLIAATAKALGLDISAFRLVEAANGAAAAATGVALVRAGEARAVMKGALHTDELMAAVVKRDGGLRTAGRISHVFLMTVPTYPKPLLITDAVVNIAPSLEDKVHIVQNAIDLARILGVETPKVAILSAVETINPKISSTVDAAALCKMAQRGQIRGGLLDGPLAFDNAISAEAAKTKGIVSEVAGQADILLVPDLESGNMLAKQLSFLAHADAAGIVLGTSAPVMLTSRADNLAARLASCALAVLIDAASRPRSTVLAAE
protein production: failed

MNMIRRLTALTLSLMLAGGPALAQTVVIVRHGEKVSPNGDPDLSDAGKARAQALAAALAGARVSTVLATPLKRTQQTAQPTADAAGLVIRTIALDGGVPAHAQRVAEVARQAPKDATVLIVGHSNTVGEIARALGDAAPSPVTDCDYDQMTIISLDAPTARTLHARYGAPTLPCPTN
protein production: failed

MIDVIQSLGIDLHFRQEIEQTLHMIYKEGLQFNGDLHEIALRFRLLRQEGHYVQEIIFKNILDKKGGFKDVVKNDVKGLTELFEASELRVEGEETLDGAREFTYSRLNELCSGRESHQKQEIMKSLAQPRHKTVRGLTSKRFTSMIKIAGQEDPEWLQSLLRVAEIDSIRLKSLTQGEMSQTFKWWTELGLEKDVEKARSQPLKWHTWSMKILQDPTLTEQRLDLTKPISLVYVIDDIFDVYGELEELTIFTRVVERWDHKGLKTLPKYMRVCFEALDMITTEISMKIYKSHGWNPTYALRQSWASLCKAFLVEAKWFNSGYLPTTEEYMKNGVVSSGVHLVMLHAYILLGEELTKEKVELIESNPGIVSSAATILRLWDDLGSAKDENQDGTDGSYVECYLNEYKGSTVDEARTHVAQKISRAWKRLNRECLNPCPFSRSFSKACLNIARTVPLMYSYDDDQRLPDEYLKSLM
protein production: failed

KVGVLVAAHGMSTASSMAQVVGQLLDDYDVQAFDMPLDMDPSVAYDHVKRRVEKLDSGKGILLLVDMGSLTTFGERIQQETGIATRTIDMVTTPVVLEAVRKASLVDSDLDSMYQELVGFKGYSRISRNLPTDSQ
protein production: failed

MFQALIDVVLPVFLVIGAGYCTTFAGYFKPEHIDGVMRFTQGFAIPCLLFRAIANLDLNAGFDPALLASFYMAAFLCFTAGLLGARLLFNRDWEDSVAIGFCCLFSNSVLLGLAITERAYGPENLVGNYAIIAIHSPFCYALGITTMEVIRNRGRGGRKMVTSVLNAMFRNVLILGIALGFIVNLSGISLPQIADDALSLIIRAALPGALFALGGVLVQYRPEGDTRVIVYICAISLLLHPGLVWLFGSALALPQDLFRSGVLNAAMAPGFNAYIFANIYGRAKRVAASSVLVATAASILTVWMWLMLLG
protein production: failed

MACFSDLSKECDMEGCRNHDFLPYKCEYCKLIFCEFHRNAEEHLCSKLKDMELNTVVLCEYCGIVLPDKKEDIQNHLIYKCLYKKKTKSILMCNKRDCKKVLNGINNYICKKCRKSFCLPHRYSDVHNCIKSDEEKSFFKSNIKKNKYILKVTTDGFINTTTHFFNSHTYIVC
protein production: failed

MFAMPTFELDALTTLALALILLGVGAQLKKRSRWLTQLCVPAPVIGGFGFALIVWLLRDQQLLAIKLDTAIQTPLMVAFFTTVGLGGSLGLLRRGGKILFVYLGACWSLALLQNLVGVGAAKALGIDPLLGIMAGAVSLEGGFGAAAAFGPIAENLGAVGATTAALASATFGMVAGGLLGSPLARWLIERNRLQIQADQVSTLQHLESAAQGSVAPLDAPTLLRLLTCILLIMVLGFWIGSALNEHLGIVLPSYVGAMFVAIILRNLNDRARIIDIPDSAVSTLGDVCLGVFLTMAMMSLKFWELEQLGLPLLVILVVQVLVMVLLCVFLLFRLFGGNYDAAVLCAGFMGHGLGATPNAVANMGAICDHYKVFSYKAFIIVPLCGAVLIDIVAIPLITWFINAFA
protein production: failed

QGLLRAIPSITEDMPRLPTIPGNPPSALINHQGCPFRDRCDYRLARCQAETPKFMPLNGRQSIACHVKAQSSISLIHQSA
protein production: failed

MNGTALNWLELCRTVGPCLRPGGTALTDRALEVCNLSADSLIADVGCGAGGTLYHLEQIGFRRLVGLDPSETLLGDAAPRLETARLIRGEAATIPLRSATVDLLLCECVLSVLPGRSAPLREFARVVKDGGYLVVSDVFSTAGDEATGQAGGLLTRKELLAAVAGNGFTLLRWETHDRLLKEFAVRMILAGECLPDAWKGGTERKGEAARGGLGYFLMVARKAEDPLP
protein production: failed

SGGDVNEAYRVETDTDTFFLLVQRGRKESFYAAEIAGLNEFERAGITAPRVIASGEVNGDVYLVMTYLEEGASGSQRQLGQLVAQLHSQQQEEGKFGFSLPYEGGDISFDNHWQDDWRTIFVDKRLDHLKEELLNRGLWDANDIKVYDKVRSQIVEELEKHQSKPSLLHGDLWGGNYMFLKDGRPALFDPAPLYGDREFDIGITTVFGGFTSEFYDAYNKHYPLAKGASYRLEFYRLYLLMV
protein production: failed

MGHHHHHHENLYFQSHMTDFVELMNSMSSTFNSDCATSTAEGGTLLNLNLAEDKTLKWRNLANNQFASKEKKHKDKEEEERKEARNQEEIEDIKALLADVVDAAAVKLEEEEAQNAEKVEPHTKCEIEEEGRKEMEYDQDVAKQDSEMEKKQNGKATSITVKMES
protein production: not failed

MRILFVGPPLYGLLYPVLSLAQAFRVNGHEVLIASGGKFAQKAAEAGLVVFDAAPGFDSEAGYRRQEALRKENNIGTKMGNFSFFSEEMTDPLVAFAGQWRPDLIVYPPLGVVGPLIAAKYDIPVVMQTVGFGHTPWHIKGVTKSLSNAYRRHGVSAPPRDLAWIDVTPPSMSILQNDGEPVISMQYVPYNGGAVWEEWWERTPDRKRLLVSLGTVKPMVDGLDLISWVMDSAGEVDAEIILHLPANARSDLRSLPPNVRLVDWLPMGVFLNGADGFIHHGGAGNTLTALHAGIPQIVFGQGADRPVNARAVVERGCGIIPGKSGLTSSMINTFLGNRALREASQEVAAEMAAQPCPTEVAKKLIAMLQHGLEHHHHHH
protein production: failed

MSFGDTLGLGFMTFAFFLGAGNLIFPPFAGMLAGENMLLAMLGFLITAVGLPLVGLIAVAKAQGKVMAMLPVFAATALAIAIYIIIGPAFAAPRTGLVAYEIGAKPFIDNTTATIMLGSLSLNLSQLIYTLGFFIVTMLLALFPGKLLDSVGKVLTPILLLLLVGLALSVLFLPASEVGVAVGDYKNHPLTKGILEGYNTMDTLASLMFGMLIIDLLRKKGIEQPSAQTKYLIRAAFIAAAGLAFVYVSLFFLGATAGDIAAGAKNGGEILTNYVTREFGSLGTVLLSAVVTLACLTTAVGLVSACSEFFNELMPKLSYRFLVVALSAICALIANVGLSQLINISIPVLMAVYPVAIALVAVTFLTEYFPRPQFAHRAALSVALLFGIFDGMKVAAKSLTGEDGRGITEFAQSFIDFVNGMSPTLSILPLYEEGMAWLLPTLVVIVLCLIIRGSGAKTVSAA
protein production: failed

MRPEIAVLDIQGQYRVYTEFYRADAAENTIILINGSLATTASFAQTVRNLHPQFNVVLFDQPYSGKSKPHNRQERLISKETEAHILLELIEHFQADHVMSFSWGGASTLLALAHQPRYVKKAVVSSFSPVINEPMRDYLDRGCQYLAACDRYQVGNLVNDTIGKHLPSLFKRFNYRHVSSLDSHEYAQMHFHINQVLEHDLERALQGARNINIPVLFINGERDEYTTVEDARQFSKHVGRSQFSVIRDAGHFLDMENKTACENTRNVMLGFLK
protein production: failed

METRAHHVLIGLFSVIVIGAALLFGLWLAKSGSEGKFNYYDIVFNEAVSGLSQGSSVQYSGIKVGDVAFLRLDPKDPRKVWARIRVVASAPIKQDTTAKLALTGITGTSIIQLSSGTPASPMLEGKDGKIPVIVATPSPLTQLLSNGEDLMGNINQLIARFSNLLSEENTARISRTLDHLDQATGALSAERENVSAVMQQLAQASRQANAALAQASELMRSANGLLNEQGKGMLENANKTMASLERTSATLDQLISENRHSLDGGIQGLAELGPAVSELRDTLAALRGISRRLEENPANYLLGREKTKEFTP
protein production: failed

QERLKITALPLYFEGFLLIKRSGYREYEHYWTELRGTTLFFYTDKKSIIYVDKLDIVDLTCLTEQNSTEKNCAKFTLVLPKEEVQLKTENTESGEEWRGFILTVTELSVPQNVSLLPGQVIKLHEVLEREKKRRIE
protein production: not failed

MKRLILPIACGICTVTSDAQTDKQPHPNVIFIYADDLGYKDLSCTGSRFYETPHIDKLAREGVCFTQSYAACPVSSPSRAALLTGKYPARINLTDYIPGDRAYGPHKNQRLASLPFNLHLSKDEITMAEAFRQNGYSTFMAGKWHLAESAEYYPEQNGFDINIGGNNTGHPSKGYFSPYGNPQLKDGPEGEYLTDRLTDEVIRYISEPKEKPFFVYLSYYTVHLPLQAKAEKIAKYRRKLSRAVPADSSFVKKGETYHKLVQDIPAYAAMVESLDENIGRLLDTLHRSGLDERTIVVFTSDNGGMATSNTTRNIPTSNLPLRAGKGYLYEGGIKVPAIIRWSGHLKGRQVSDTPIIGTDYYPTLLDLCGLPLLPGQHVDGVSMKPVLQGGRLSRPSLFWHYPHYSGGLGGRPSAAIREGDYKLIEFFEDHHVELYNVIQDESEEKDLSQIYPEIADGLRKKLYLWYKEVGARMPVDNPHYVSPVKDSDSFENKLEHHHHHH
protein production: failed
